Measurements: patent publication US11622990

Target: Recombinant human glucose-regulated protein GRP78 (human) (UniProt P11021)
Assay: SPR (Biacore T200), recombinant human GRP78 coupled to a CM5 chip, peptide injected at 0.3125-20 µM

Recombinant human glucose-regulated protein GRP78 (human), sequence (P11021 19-654 limits assumed): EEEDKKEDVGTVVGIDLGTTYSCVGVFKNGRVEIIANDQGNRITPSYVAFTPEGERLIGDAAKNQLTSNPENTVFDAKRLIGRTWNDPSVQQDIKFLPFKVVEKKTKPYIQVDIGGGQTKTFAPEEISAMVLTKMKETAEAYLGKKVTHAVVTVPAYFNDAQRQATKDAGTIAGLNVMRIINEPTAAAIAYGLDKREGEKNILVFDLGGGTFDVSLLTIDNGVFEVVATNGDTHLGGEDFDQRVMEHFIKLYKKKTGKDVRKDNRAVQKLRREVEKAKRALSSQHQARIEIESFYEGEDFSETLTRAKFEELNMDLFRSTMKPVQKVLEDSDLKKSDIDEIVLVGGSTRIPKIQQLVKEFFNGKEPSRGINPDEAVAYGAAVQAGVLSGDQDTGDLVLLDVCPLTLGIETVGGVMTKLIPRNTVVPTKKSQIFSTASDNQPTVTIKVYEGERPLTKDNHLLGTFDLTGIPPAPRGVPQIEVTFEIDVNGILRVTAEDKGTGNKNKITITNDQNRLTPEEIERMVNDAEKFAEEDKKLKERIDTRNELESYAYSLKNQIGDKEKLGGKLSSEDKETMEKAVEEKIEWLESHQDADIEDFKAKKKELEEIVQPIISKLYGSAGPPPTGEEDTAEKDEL

SNTRVAP (all seven residues are D-configuration amino acids (^DS^DN^DT^DR^DV^DA^DP)) [SVAP (D-configuration peptide DS-DN-DT-DR-DV-DA-DP)]
Kd: 5.22 µM | koff: 0.0283 s⁻¹
